Measured values: patent publication US20040071656A1, “Modulation of heat-shock-protein-based immunotherapies” (priority 2001, published 2004)

Biological target: T1, exoplasmic domain of human CD40 (GST-CD40) (Homo sapiens, UniProt P25942)
T1 construct: The cDNA for the exoplasmic domain of CD40 (amino acids 20-212); made in house; host or cells: E. coli, pGEX-2T
Test: GST-CD40 binding and competition assay with recombinant Hsp70 and its domains
Settings: ADP, 5-fold molar excess of competitor
Protocol: For binding assays with recombinant Hsp70 and its domains, 3 μM His6-Hsp70 or its His6-tagged domains were incubated with 2 mM ATP, 2 mM ADP or 2 mM ADP and 28 μM peptide C in 50 μl binding buffer (10 mM MOPS/KOH, pH 7.2, 150 mM KCl and 3 mM MgCl2) for 30 min at 37° C. In competition experiments binding was probed with either a 10-fold excess of Hsp70, the two domains, or DnaK, or with a 5-fold excess of Hip or Bag 1 for 10 min at 0° C. To this end, Hsp70, N70, C70 and DnaK were preincubated with ADP, ATP and peptide C as described above. […] 10 μl of the eluates were subjected to SDS-PAGE and analyzed by immunoblotting using a Penta-His-antibody (Quiagen). Blot signals were quantified by Quantity One (Biorad).
Details for FIG. 3. […] Thereafter samples were affinity purified on glutathione-Sepharose as outlined in Experimental Procedures, subjected to SDS-PAGE and analyzed by immunoblotting with antibodies directed against Hsc70 and Hsp70 (upper lanes), and against Hsp90 (lower lanes). […] After affinity purification samples were analyzed by immunoblotting as described in A, using antibodies directed against the His6-tag. […] Protein bound to Hsp70 was analyzed by affinity purification on Ni-NTA-agarose and immunoblotting with antibodies directed against CD40. […]
Details for FIG. 5. […] The lower panel is a quantitation of the data. […]

T1 sequence (P25942 20-212): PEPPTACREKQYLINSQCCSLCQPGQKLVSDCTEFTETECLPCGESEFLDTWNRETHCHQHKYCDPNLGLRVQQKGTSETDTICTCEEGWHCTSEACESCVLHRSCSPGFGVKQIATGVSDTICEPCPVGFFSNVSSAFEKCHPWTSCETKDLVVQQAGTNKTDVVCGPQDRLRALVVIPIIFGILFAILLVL

B1: Hip: Hsp70 cochaperone that stabilizes the ADP-state of Hsp70, recombinant His-tagged (protein, UniProt P50502 1-369, looked up)
Hsc70-interacting protein: MDPRKVNELRAFVKMCKQDPSVLHTEEMRFLREWVESMGGKVPPATQKAKSEENTKEEKPDSKKVEEDLKADEPSSEESDLEIDKEGVIEPDTDAPQEMGDENAEITEEMMDQANDKKVAAIEALNDGELQKAIDLFTDAIKLNPRLAILYAKRASVFVKLQKPNAAIRDCDRAIEINPDSAQPYKWRGKAHRLLGHWEEAAHDLALACKLDYDEDASAMLKEVQPRAQKIAEHRRKYERKREEREIKERIERVKKAREEHERAQREEEARRQSGAQYGSFPGGFPGGMPGNFPGGMPGMGGGMPGMAGMPGLNEILSDPEVLAAMQDPEVMVAFQDVAQNPANMSKYQSNPKVMNLISKLSAKFGGQA
modifications: His tag
notes: Hsp70 cochaperone that stabilizes the ADP-state of Hsp70, recombinant His-tagged
competition for the binding of full-length Hsp70 to CD40: acted as an effective competitor of the interaction
